Values quoted from earlier work as cited in paper PMC11941745.

Tests used:
[1] = target: flotillin-1 (Homo sapiens) (UniProt O75955); assay: SPR
[2] = target: flotillin-2 (Homo sapiens) (UniProt Q14254); assay: SPR
UniProt Q14254, sequence (Q14254 2-428): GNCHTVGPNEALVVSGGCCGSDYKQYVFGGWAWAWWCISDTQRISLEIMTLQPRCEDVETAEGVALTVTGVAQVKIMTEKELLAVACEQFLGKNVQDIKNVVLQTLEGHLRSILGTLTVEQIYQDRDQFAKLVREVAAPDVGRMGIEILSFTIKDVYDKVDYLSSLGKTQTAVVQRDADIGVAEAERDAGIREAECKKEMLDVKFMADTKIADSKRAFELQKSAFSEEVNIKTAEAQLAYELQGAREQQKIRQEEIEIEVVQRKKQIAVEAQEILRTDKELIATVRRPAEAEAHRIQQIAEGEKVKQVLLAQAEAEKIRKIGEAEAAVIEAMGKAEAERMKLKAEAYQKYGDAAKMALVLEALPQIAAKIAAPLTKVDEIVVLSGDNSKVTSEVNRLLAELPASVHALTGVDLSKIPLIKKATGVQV

UniProt O75955, sequence (O75955 whole entry): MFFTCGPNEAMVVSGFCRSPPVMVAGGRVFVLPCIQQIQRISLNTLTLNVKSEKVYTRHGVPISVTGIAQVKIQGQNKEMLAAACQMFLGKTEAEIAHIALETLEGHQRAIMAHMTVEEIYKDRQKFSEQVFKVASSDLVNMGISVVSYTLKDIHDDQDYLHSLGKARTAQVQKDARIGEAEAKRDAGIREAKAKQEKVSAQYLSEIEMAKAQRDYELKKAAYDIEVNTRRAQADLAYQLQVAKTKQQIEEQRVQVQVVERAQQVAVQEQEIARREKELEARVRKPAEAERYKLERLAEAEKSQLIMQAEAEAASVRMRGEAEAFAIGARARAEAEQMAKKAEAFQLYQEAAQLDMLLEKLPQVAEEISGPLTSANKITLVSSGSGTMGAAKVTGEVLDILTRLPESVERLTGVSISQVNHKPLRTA

MPP1 (from UniProt Q00013)
Kd [1]: 18.1 nM | Kd [2]: 24.8 nM
